Data from publication doi:10.1101/2024.03.15.584944 (bioRxiv, 2024).

Key:
[1] = target: T1, C1q (human (endogenous in normal human serum), UniProt P02745 23-245; P02746 28-253; P02747 29-245); assay: ELISA
[2] = target: T1, C1q; assay: MST

T1 sequence (P02745 23-245, chain 1 of 3): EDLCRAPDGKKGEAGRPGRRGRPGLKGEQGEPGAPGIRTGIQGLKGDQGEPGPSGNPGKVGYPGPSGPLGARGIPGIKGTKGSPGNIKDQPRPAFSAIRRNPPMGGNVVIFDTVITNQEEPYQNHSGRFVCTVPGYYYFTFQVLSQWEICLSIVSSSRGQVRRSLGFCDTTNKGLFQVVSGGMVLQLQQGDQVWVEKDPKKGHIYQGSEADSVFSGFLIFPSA
T1 sequence (P02746 28-253, chain 2 of 3): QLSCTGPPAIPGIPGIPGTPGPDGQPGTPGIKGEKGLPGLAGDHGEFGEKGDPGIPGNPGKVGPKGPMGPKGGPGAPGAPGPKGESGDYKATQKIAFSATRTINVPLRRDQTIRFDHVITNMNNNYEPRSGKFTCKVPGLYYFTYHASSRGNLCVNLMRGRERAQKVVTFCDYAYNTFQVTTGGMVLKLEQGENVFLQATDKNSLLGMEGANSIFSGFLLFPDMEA
T1 sequence (P02747 29-245, chain 3 of 3): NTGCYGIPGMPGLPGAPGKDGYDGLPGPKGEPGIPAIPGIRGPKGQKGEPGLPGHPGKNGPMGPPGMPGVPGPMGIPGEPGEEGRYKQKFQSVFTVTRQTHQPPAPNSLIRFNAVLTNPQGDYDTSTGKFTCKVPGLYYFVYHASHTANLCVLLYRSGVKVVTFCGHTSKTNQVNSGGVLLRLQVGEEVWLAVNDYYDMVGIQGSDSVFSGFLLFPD

Binder | binding result [1] | Kd [2]
rMASP-1 (enzyme, UniProt P48740 20-699, looked up) HTVELNNMFGQIQSPGYPDSYPSDSEVTWNITVPDGFRIKLYFMHFNLESSYLCEYDYVKVETEDQVLATFCGRETTDTEQTPGQEVVLSPGSFMSITFRSDFSNEERFTGFDAHYMAVDVDECKEREDEELSCDHYCHNYIGGYYCSCRFGYILHTDNRTCRVECSDNLFTQRTGVITSPDFPNPYPKSSECLYTIELEEGFMVNLQFEDIFDIEDHPEVPCPYDYIKIKVGPKVLGPFCGEKAPEPISTQSHSVLILFHSDNSGENRGWRLSYRAAGNECPELQPPVHGKIEPSQAKYFFKDQVLVSCDTGYKVLKDNVEMDTFQIECLKDGTWSNKIPTCKIVDCRAPGELEHGLITFSTRNNLTTYKSEIKYSCQEPYYKMLNNNTGIYTCSAQGVWMNKVLGRSLPTCLPVCGLPKFSRKLMARIFNGRPAQKGTTPWIAMLSHLNGQPFCGGSLLGSSWIVTAAHCLHQSLDPEDPTLRDSDLLSPSDFKIILGKHWRLRSDENEQHLGVKHTTLHPQYDPNTFENDVALVELLESPVLNAFVMPICLPEGPQQEGAMVIVSGWGKQFLQRFPETLMEIEIPIVDHSTCQKAYAPLKKKVTRDMICAGEKEGGKDACAGDSGGPMVTLNRERGQWYLVGTVSWGDDCGKKDRYGVYSYIHHNKDWIQRVTGVRN | binds | 
Zymogen rMASP-3 (enzyme, human, UniProt P48740-2 20-728, looked up, RED-tris-NTA dye on the His tag (in the MST only)) HTVELNNMFGQIQSPGYPDSYPSDSEVTWNITVPDGFRIKLYFMHFNLESSYLCEYDYVKVETEDQVLATFCGRETTDTEQTPGQEVVLSPGSFMSITFRSDFSNEERFTGFDAHYMAVDVDECKEREDEELSCDHYCHNYIGGYYCSCRFGYILHTDNRTCRVECSDNLFTQRTGVITSPDFPNPYPKSSECLYTIELEEGFMVNLQFEDIFDIEDHPEVPCPYDYIKIKVGPKVLGPFCGEKAPEPISTQSHSVLILFHSDNSGENRGWRLSYRAAGNECPELQPPVHGKIEPSQAKYFFKDQVLVSCDTGYKVLKDNVEMDTFQIECLKDGTWSNKIPTCKIVDCRAPGELEHGLITFSTRNNLTTYKSEIKYSCQEPYYKMLNNNTGIYTCSAQGVWMNKVLGRSLPTCLPECGQPSRSLPSLVKRIIGGRNAEPGLFPWQALIVVEDTSRVPNDKWFGSGALLSASWILTAAHVLRSQRRDTTVIPVSKEHVTVYLGLHDVRDKSGAVNSSAARVVLHPDFNIQNYNHDIALVQLQEPVPLGPHVMPVCLPRLEPEGPAPHMLGLVAGWGISNPNVTVDEIISSGTRTLSDVLQYVKLPVVPHAECKTSYESRSGNYSVTENMFCAGYYEGGKDTCLGDSGGAFVIFDDLSQRWVVQGLVSWGGPEECGSKQVYGVYTKVSNYVDWVWEQMGLPQSVVEPQVER |  | 69.6 nM
rMAP-1 (natural protein, UniProt P48740-3 20-380, looked up) HTVELNNMFGQIQSPGYPDSYPSDSEVTWNITVPDGFRIKLYFMHFNLESSYLCEYDYVKVETEDQVLATFCGRETTDTEQTPGQEVVLSPGSFMSITFRSDFSNEERFTGFDAHYMAVDVDECKEREDEELSCDHYCHNYIGGYYCSCRFGYILHTDNRTCRVECSDNLFTQRTGVITSPDFPNPYPKSSECLYTIELEEGFMVNLQFEDIFDIEDHPEVPCPYDYIKIKVGPKVLGPFCGEKAPEPISTQSHSVLILFHSDNSGENRGWRLSYRAAGNECPELQPPVHGKIEPSQAKYFFKDQVLVSCDTGYKVLKDNVEMDTFQIECLKDGTWSNKIPTCKKNEIDLESELKSEQVTE | binds | 
